Test results as given in PMC8232969 (Cell, 2021).

Molecular target: SARS-CoV-2 Spike-2P (stabilized S ectodomain trimer) (SARS-CoV-2, UniProt P0DTC2)
Test: cryo-EM structure

Row | Binder | stoichiometry N [Fabs per S-2P trimer]
1 | DH1047 Fab (Fab, V domains shown) VH: QVQLVQSGAEVKKPGASVQVSCQASANTFTNHYIHWVRQAPGQGLEWMGIIYPTGGNTIYAQGFQGRVTMTRDTSLNTIYLELSSLRSEDTAVYYCARDVRVDDSWSGYDLLSGGTYFDYWGQGTLVTVSS VL: not shown | 3
2 | DH1041 Fab (Fab, V domains shown) VH: EVQLVESGGGLVQPGGSLRLSCAASGVTFSSYWMSWVRQAPGKGLEWVANIRQDGSEKYSVDSVKGRFTISRDNAKNSLYLQMNSLRAEDTAVYYCARARRADNSGYYGFHFDCWGQGTLVTVSS VL: QSVLTQPPSVSGAPGQRVTISCTGSSSNIGAGYDVHWYQQLPGTAPKLLIYGNNNRPSGVPDRFSDSKSGTSASLAITRLQAEDEADYYCQSYDSSLSGWVFGGGTKLTVL | 3
